Article PMC4669440

Experiment: micro-CT of femur
Settings: glycan lost; control: WT mice

B1: Dentin matrix protein 1 (DMP1): S89G (protein)
parent chain: MKTVILLVFLWGLSCALPVARYHNTESESSEERTGDLAGSPPPPTNSESSEESQASPEGQANSDHTDSSESGEELGYDRGQYRPAGGLSKSTGTGADKEDDEDDSGDDTFGDEDNDLGPEEGQWGGPSKLDSDEDSTDTTQSSEDSTSQENSAQDTPSDSKDHDSEDEADSRPEAGDSTQDSESEEQRVGGGSEGESSHGDGSEFDDEGMQSDDPESTRSDRGHARMSSAGIRSEESKGDHEPTSTQDSDDSQSVEFSSRKSFRRSHVSEEDYRGELTDSNSRETQSDSTEDTASKEESRSESQEDTAESQSQEDSPEGQDPSSESSEEAGEPSQESSSESQEGVTSESRGDNPDNTSQAGDQEDSESSEEDSLNTFSSSESQSTEEQADSESNESLSLSEESQESAQDGDSSSQEGLQSQSASTESRSQESQSEQDSRSEEDSDSQDSSRSKEESNSTGSASSSEEDIRPKNMEADSRKLIVDAYHNKPIGDQDDNDCQDGY
  other: bone material density: increases
